Laboratory results published in US20230340111A1 (published 2023).
Residue numbers refer to the chain shown, from its start. In names and notes the source's numbering stands. Blank lines part the entries; values can stand above or below the binder they belong to.

Tests used:
[1] = biological target: T1, human FOLR1 expressed on SKOV-3 ovarian carcinoma cells (human, UniProt P15328 25-234); test: saturation binding of 99mTc-labelled His6-tagged VHH on SKOV-3 cells (0-300 nM); non-specific binding by 100-fold unlabelled VHH
T1 construct: Naturally expressed receptor on SKOV-3 cells; also called human FOLR1pos SKOV-3 cancer cells; human FOLR1-expressing cell line SKOV-3
T1 sequence (P15328 25-234 limits assumed): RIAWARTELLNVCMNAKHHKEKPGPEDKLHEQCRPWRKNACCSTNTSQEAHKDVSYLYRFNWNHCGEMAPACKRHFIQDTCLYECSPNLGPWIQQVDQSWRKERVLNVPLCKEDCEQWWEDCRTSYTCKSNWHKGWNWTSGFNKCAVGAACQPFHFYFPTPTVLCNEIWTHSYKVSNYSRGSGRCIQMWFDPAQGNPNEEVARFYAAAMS
Experimental: After quality control (> 95%), human FOLR1^pos SKOV-3 cancer cells were incubated with serial dilutions with concentrations ranging from 0 to 300 nM of the different ^99mTc-labelled VHHs. A 100-fold excess of the corresponding unlabeled VHH was added in parallel to saturate the human FOLR1 receptors expressed on cancer cells, to assess non-specific binding.

[2] = biological target: T2, human FOLR1 recombinant protein (extracellular domain of human folate receptor alpha) (human, UniProt P15328 25-233); test: SPR (Biacore T200), single cycle kinetics, human FOLR1 immobilized on CM5, untagged VHH as analyte, 1:1 fit
T2 construct: Bought recombinant protein (Sino Biological); also called hFOLR1; FR-alpha
T2 sequence (P15328 25-233): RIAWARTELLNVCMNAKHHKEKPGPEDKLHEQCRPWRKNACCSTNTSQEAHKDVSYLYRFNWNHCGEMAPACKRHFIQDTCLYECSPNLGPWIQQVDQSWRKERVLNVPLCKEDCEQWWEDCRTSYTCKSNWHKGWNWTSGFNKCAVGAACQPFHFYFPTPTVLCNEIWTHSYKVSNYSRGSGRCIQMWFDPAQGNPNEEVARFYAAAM
Experimental: The antigen-binding kinetic parameters of untagged, purified VHH A1 and A2 variants were determined by surface plasmon resonance on immobilized human FOLR1 recombinant protein with a Biacore T200 instrument (GE Healthcare). The human FOLR1 recombinant protein (Sino Biological) was immobilized in 10 mM sodium acetate, pH 5.5 on a CM5 chip (GE Healthcare) via amine coupling chemistry to 250 RU. VHHs were analyzed using single cycle kinetics with a threefold serial dilution in HBS (5 nM-0.062 nM) and an analyte flow rate of 40 µl/min. The association phase took 5× 450 s and the dissociation phase 900 s. Regeneration was done by a single injection of 50 mM glycine-HCl, pH 2.5, 2 M MgCl₂ for 30 s at 30 µl/min, followed by 120 s stabilization. Binding curves were fitted using a ‘1:1 (antigen:analyte)’ binding model in Biacore T200 evaluation software.

[3] = biological target: T1, human FOLR1 expressed on SKOV-3 ovarian …; test: saturation binding of 131I-labelled untagged VHH on SKOV-3 cells
Experimental: In a first part, their in vitro behaviour was assessed by means of investigating their cellular binding and retention over time. The binding potential of the resulting radioconjugates was assessed to confirm that this was not affected by the introduction of ¹³¹I-SGMIB into the amino acid sequence of the different VHHs. To this, human FOLR1^pos SKOV-3 cancer cells were incubated with serial dilutions with concentrations ranging from 0 to 300 nM of the different ¹³¹I-labelled, His₆ tagged VHHs. A 100-fold excess of the corresponding unlabeled VHH was added in parallel to saturate the human FOLR1 receptors expressed on cancer cells, to assess non-specific binding.
A1 and A2 parental untagged VHH’s and derivatives were radiolabeled with theranostic isotope ¹³¹I, as described in example 3, and subjected to saturation binding studies as described in example 6.

[4] = biological target: T1, human FOLR1 expressed on SKOV-3 ovarian …; test: cellular retention on SKOV-3 cells: 10 nM 131I-VHH 1 h at 4 C, then up to 24 h at 37 C; membrane-bound plus internalized fraction
Experimental: The in vitro cellular retention of the different His₆- and untagged ¹³¹I-labeled VHHs was assessed on the same cancer cells. In this particular case, human FOLR1^pos SKOV-3 cancer cells were incubated with 10 nM ¹³¹I-labelled VHHs for 1h at 4° C., after which the unbound fraction was collected. A 100-fold excess of the corresponding unlabeled VHH to assess non-specific binding. Next, the cells were incubated with fresh medium up to 24 h at 37° C., after which the dissociated fraction was collected. Afterwards, the cells were washed with 0.05 M glycine pH 2.8 to collect the membrane-bound fraction. Finally, cells were solubilized with 1 M NaOH at room temperature to collect the internalized fraction. The sum of the membrane-bound and internalized fractions corresponds to the total cell-associated fraction.

EC50 [1]: 28.6 nM
B1: 99mTc-labeled His6-tagged VHH A5 (VHH)
VHH: DVQLVESGGGLVQAGGSLRLSCGVSGNIFSMNLMGWYRQPPGKEREWVALITKDGSTNYEDSVKGRFTISRDNAKNTVSLQMNSLKPEDTAVYYCNAQDGSGWIRAWGWDWGQGTQVTVSS
modifications: [99mTc(H2O)3(CO)3] at the His6-tail
notes: also called 99mTc-A5

EC50 [1]: 3.3 nM
B2: 99mTc-labeled His6-tagged VHH A3 (VHH)
VHH: B1 VHH with I28M, E46D, L50V, E60A, A97V
modifications: [99mTc(H2O)3(CO)3] at the His6-tail
notes: also called 99mTc-A3

Kd [2]: 0.25 nM | koff [2]: 0.0006 s⁻¹ | kon [2]: 2.3e+06 M⁻¹ s⁻¹
B3: untagged E90Q variant of VHH A2 (VHH)
VHH: DVQLVESGGGLVQAGGSLRLSCAADEMKFSNYDLAWYRRAPGKQRELAAIITSGGSTNYPDSVKGRFTISRDNAKNTVYLQMNSLKPEDTAVYYCNALRPWPQFSDYWGQGTQVTVSS
notes: also called A2-E90Q

EC50 [1]: 1.1 nM
B4: 99mTc-labeled His6-tagged VHH A2 (VHH)
VHH: B3 VHH with Q81E
modifications: [99mTc(H2O)3(CO)3] at the His6-tail
notes: also called 99mTc-A2; 99mTc-VHH A2

EC50 [3]: 2.9 nM
B5: 131I-labeled untagged A2-E90Q (VHH)
VHH: B3 VHH
modifications: [131I]SGMIB conjugated to lysine side-chain amine groups

cell-associated fraction of initial bound activity after 24 h [4]: ~60% | EC50 [3]: 2.4 nM
B6: 131I-labeled untagged VHH A2 (VHH)
VHH: B3 VHH with Q81E
modifications: [131I]SGMIB conjugated to lysine side-chain amine groups

Kd [2]: 0.81 nM | koff [2]: 0.0016 s⁻¹ | kon [2]: 2e+06 M⁻¹ s⁻¹
B7: untagged M28A-E90Q variant of VHH A2 (VHH)
VHH: B3 VHH with M27A
notes: also called A2-M28A-E90Q

Kd [2]: 0.29 nM | koff [2]: 0.00053 s⁻¹ | kon [2]: 1.9e+06 M⁻¹ s⁻¹
B8: untagged K29R-E90Q variant of VHH A2 (VHH)
VHH: B3 VHH with K28R
notes: also called A2-K29R-E90Q

EC50 [3]: 5.1 nM
B9: 131I-labeled untagged A2-K29Q-E90Q (VHH)
VHH: B3 VHH with K28Q
modifications: [131I]SGMIB conjugated to lysine side-chain amine groups

EC50 [3]: 3.6 nM
B10: 131I-labeled untagged A2-K29R-E90Q (VHH)
VHH: B3 VHH with K28R
modifications: [131I]SGMIB conjugated to lysine side-chain amine groups

EC50 [3]: 4.8 nM
B11: 131I-labeled untagged A2-M28T-E90Q (VHH)
VHH: B3 VHH with M27T
modifications: [131I]SGMIB conjugated to lysine side-chain amine groups

Kd [2]: 0.27 nM | koff [2]: 0.00048 s⁻¹ | kon [2]: 1.8e+06 M⁻¹ s⁻¹
B12: untagged K29Q-E90Q variant of VHH A2 (VHH)
VHH: B3 VHH with K28Q
notes: also called A2-K29Q-E90Q

EC50 [3]: 4.1 nM
B13: 131I-labeled untagged A2-M28A-E90Q (VHH)
VHH: B3 VHH with M27A
modifications: [131I]SGMIB conjugated to lysine side-chain amine groups

Kd [2]: 0.56 nM | koff [2]: 0.0013 s⁻¹ | kon [2]: 2.3e+06 M⁻¹ s⁻¹
B14: untagged M28T-E90Q variant of VHH A2 (VHH)
VHH: B3 VHH with M27T
notes: also called A2-M28T-E90Q; A2-M28TE90Q

EC50 [1]: 3.8 nM
B15: 99mTc-labeled His6-tagged VHH A4 (VHH)
VHH: DVQLVESGGGLARAGGSLRLSCAASGRAFSSTYAMGWFRQAPGKEREFVADINWSEGSPMYIDSVKDRFTISRDNARNSLYLQMNSLKSEDTAVYYCAARRFGQGYEYWGQGTQVTVSS
modifications: [99mTc(H2O)3(CO)3] at the His6-tail
notes: also called 99mTc-A4

Kd [2]: 0.092 nM | koff [2]: 0.00017 s⁻¹ | kon [2]: 1.8e+06 M⁻¹ s⁻¹
B16: untagged N64E variant of VHH A1 (VHH)
VHH: DVQLVESGGGLVQPGGSLRLSCAASESIFSRNHMSWYRQAPGKQRELAAIITSDGETNYPDSVKGRFTISRDNAKNTVYLQMNSLKPEDTAVYYCNTFGRSVAGFYDYWGQGTQVTVSS
notes: also called A1-N64E

EC50 [1]: 1 nM
B17: 99mTc-labeled His6-tagged VHH A1 (VHH)
VHH: B16 VHH with E56N
modifications: [99mTc(H2O)3(CO)3] at the His6-tail
notes: also called 99mTc-A1; 99mTc-VHH A1

EC50 [3]: 2.1 nM
B18: 131I-labeled untagged A1-D59E (VHH)
VHH: B16 VHH with D54E, E56N
modifications: [131I]SGMIB conjugated to lysine side-chain amine groups

Kd [2]: 0.057 nM | koff [2]: 0.00014 s⁻¹ | kon [2]: 2.5e+06 M⁻¹ s⁻¹
B19: untagged N64S variant of VHH A1 (VHH)
VHH: B16 VHH with E56S
notes: also called A1-N64S

Kd [2]: 0.036 nM | koff [2]: 8.2e-05 s⁻¹ | kon [2]: 2.3e+06 M⁻¹ s⁻¹
B20: untagged N64Q variant of VHH A1 (VHH)
VHH: B16 VHH with E56Q
notes: also called A1-N64Q

EC50 [3]: 0.9 nM
B21: 131I-labeled untagged A1-N64S (VHH)
VHH: B16 VHH with E56S
modifications: [131I]SGMIB conjugated to lysine side-chain amine groups

EC50 [3]: 2.5 nM
B22: 131I-labeled untagged A1-N64E (VHH)
VHH: B16 VHH
modifications: [131I]SGMIB conjugated to lysine side-chain amine groups

EC50 [3]: 2.3 nM
B23: 131I-labeled untagged A1-N64Q (VHH)
VHH: B16 VHH with E56Q
modifications: [131I]SGMIB conjugated to lysine side-chain amine groups

Kd [2]: 0.083 nM | koff [2]: 0.00019 s⁻¹ | kon [2]: 2.3e+06 M⁻¹ s⁻¹
B24: untagged D59E variant of VHH A1 (VHH)
VHH: B16 VHH with D54E, E56N
notes: also called A1-D59E
